Molecular target: H2A-H2B dimers (yeast) (yeast) (UniProt P04911)
Assay: native gel or EMSA

## Purified Tom1p (Tom1p-Protein A after Protein A removal) (from UniProt Q03280 1-3268) (enzyme)
  Kd: 160 to 330 nM
